Results from patent publication US20230332251A1.

Molecular target: histidine kinase UzcS (Caulobacter crescentus NA1000)
Test: cell-based or functional assay

Chain of histidine kinase UzcS (Caulobacter crescentus NA1000) (chain, as listed by the source limits assumed, form in doubt): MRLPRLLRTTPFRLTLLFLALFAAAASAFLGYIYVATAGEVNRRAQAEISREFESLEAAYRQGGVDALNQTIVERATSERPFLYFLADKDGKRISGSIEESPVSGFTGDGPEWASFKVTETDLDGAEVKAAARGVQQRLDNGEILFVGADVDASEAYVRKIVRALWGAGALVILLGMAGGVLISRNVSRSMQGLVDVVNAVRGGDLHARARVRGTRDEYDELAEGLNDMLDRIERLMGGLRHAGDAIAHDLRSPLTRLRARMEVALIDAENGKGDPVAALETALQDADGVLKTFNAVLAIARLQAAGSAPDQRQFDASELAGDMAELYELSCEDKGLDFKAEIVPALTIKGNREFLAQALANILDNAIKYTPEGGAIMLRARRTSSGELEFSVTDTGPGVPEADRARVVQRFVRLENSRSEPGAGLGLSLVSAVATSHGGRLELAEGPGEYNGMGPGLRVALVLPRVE

- fold decrease in U detection limit of UzcRS (reporter fluorescence in C. crescentus, +UzcY versus -UzcY, FIG. 12): > 4 fold
Substance: UzcY (protein encoded by CCNA_03497)
